Measured values taken from the supplement of paper PMC12042874.
± gives the uncertainty stated by the source.

Test: amyloid nucleation score (Sup35N fusion, yeast selection) (log enrichment); library NNK1; higher = more nucleation; inactive = no reads after selection
Outline: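 On medium lacking adenine and uracil, psi-negative yeast expressing peptides of 20 random codons fused to Sup35N were grown 7 days at 30°C after a 24-hour induction with 100 μM copper sulfate. Illumina sequencing of input and output plasmid inserts gave the reads, and sequences under 100 input reads were excluded. The nucleation score is the DiMSum log enrichment of output over input reads, centred on the mode score of non-aggregating sequences.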

Row | Substance | amyloid nucleation score
1 | SQLESFWVYMQLRGMTYTVA | -0.081 ± 0.31
2 | VSTCTL | inactive
3 | VYQKWLG | -0.778 ± 0.46
4 | TMNNFVLKSAFLKSAFTTGV | -1.04 ± 2.1
5 | ISLRYFPNYISFHKLGFRSA | 0.523 ± 0.39
6 | KNFHELTVDYVCVLYREQLF | 0.115 ± 0.26
7 | GWSLNQVVCCALCSVSRRKR | 0.553 ± 0.48
8 | DSGLFSKVVMHDNPSSVDKL | -0.123 ± 0.64
9 | PKRPMWLIQET | -0.571 ± 0.61
10 | SKASMEGYW | 0.739 ± 0.54
11 | YFYFLVNISFISIKGCLFMP | 0.121 ± 0.4
12 | TCRKTTMQRRSTHNLVKCDE | -1.47 ± 2.7
13 | RFHCYWTPRTLSMASSTPWM | 0.47 ± 0.45
14 | VAFWFVLGWKGSLYYKGLAD | 0.334 ± 1.1
15 | LNIRVIRGLGRMNAPVVSDL | 1.32 ± 0.57
16 | SHGAGYRFTEFIHHSGGLPN | 0.498 ± 0.39
17 | VYKFIFAYYYSEDVPFNRPL | inactive
18 | FRMRHQERMAGTPVGMGLYC | -0.327 ± 0.69
19 | TTFTRVTLICSPPVQAKLGR | 0.399 ± 0.27
20 | HRVVSVRRCMKHPLSMERVA | 0.447 ± 0.51
21 | VGFVATNCRWSCFS | 5.5 ± 0.11
22 | FVSWLFVS | -1.4 ± 0.98
23 | VGHYDNSYGRNGLLTTR | -0.179 ± 0.53
24 | FSTGNPWVD | -0.342 ± 0.8
25 | FKMSWSTPARYNNGLTRLIF | -0.379 ± 0.63

Row | Substance | amyloid nucleation score
26 | DMEQAICEPSLFKIVGDNNL | -0.186 ± 0.86
27 | GTMDMSQGYSQVCLDFIVHG | -0.626 ± 1.2
28 | VIDKDGVANGKVVLASHCVN | -0.766 ± 0.86
29 | LCIMF | -0.446 ± 0.69
30 | YKVNNFKTFSLWNMFLDSNC | 4.47 ± 0.064
31 | KVFWLYPMNLS | 0.278 ± 0.65
32 | KNNIDIAFAV | -0.065 ± 0.98
33 | GFKGILTYGRGVLVHFYRPQ | 0.09 ± 0.35
34 | FSMVAESRIEGILRFS | 0.409 ± 0.22
35 | YRFQTSISNCYSAERDWGT | 1.37 ± 0.42
36 | NSSLLDISLYDNLVQGSDWP | -0.249 ± 0.57
37 | VDNFIYLVNYLHTRNFISRH | -0.287 ± 0.35
38 | RNKMMWLIICQGPPYRAWSP | 5.07 ± 0.07
39 | VAADMEARYIFCYIINVDAR | 4.98 ± 0.083
40 | MFDGEIFSYFNCTIV | 5.67 ± 0.051
41 | RLFHIGGRGVRYYRLDVAMH | -0.264 ± 1.2
42 | WRIEACFSNFARTIFLVSGW | -0.399 ± 0.3
43 | VLSFVLDYCNAEV | 0.653 ± 0.45
44 | SFWNSLV | 0.468 ± 1.2
45 | WLRMYLGINFSVRYCGRRVE | 0.465 ± 0.48
46 | WVAWTYMENLSCLYFETATM | -0.593 ± 0.57
47 | NFLIDTYCVNSFNVTL | 2.67 ± 0.17
48 | IESWCLMSVNSDGARWSSRF | -0.872 ± 0.83
49 | LLLAY | -0.716 ± 0.44
50 | SGRPLEYTDNGEQDRMWWQS | -0.044 ± 0.88

Row | Substance | amyloid nucleation score
51 | QNYSLNWSITGLVRLLSRIC | -0.73 ± 0.55
52 | VGVYGRYIV | -0.135 ± 0.28
53 | CFSDKS | -0.621 ± 0.42
54 | LDTIVIVWRNCLRYKFHLCL | -0.057 ± 0.84
55 | ISKNLNRMHILVLYMVGMRF | 0.259 ± 0.88
56 | LVNVGGQEIKVMR | 0.888 ± 0.2
57 | VKFDLMAI | -0.777 ± 1.7
58 | QLPCDRISSDALYRMWGLV | -1.41 ± 0.91
59 | PFGDSAPKTIRIMAVLIFTV | -0.237 ± 1.9
60 | WRWYEGGLTLSWSHASSA | -0.536 ± 0.98
61 | WAMREEVYSNSFSFMFALYW | 0.651 ± 0.36
62 | CEGKGWFANITYSDFLLIMR | -0.462 ± 0.97
63 | SQLWCLTNKHRKQQRKAGHY | 0.027 ± 0.53
64 | RDLDSSILNNFFDICTFWNK | -0.305 ± 0.5
65 | CCLHSAFSNNARILFMALRS | 0.861 ± 0.84
66 | SFGKVPFDLPKNFPRVSSVT | -0.276 ± 0.33
67 | IILLNNYTDMHIPEGIGVTM | 0.466 ± 1.4
68 | IDKNVIIIKVLCMLIVFPTG | -0.771 ± 0.82
69 | VVSFLLHPCDFRSWFCGCIW | -0.226 ± 0.93
70 | VPMPGNDQWDGKRGYICIRS | 1.31 ± 0.48
71 | SFSEICWVVGHYMNGFSQMR | 1.89 ± 0.47
72 | EMRLCRPCREYLLKSPT | 0.31 ± 0.37
73 | VLYGLGSWLVRNIVLSYSVV | 0.106 ± 0.24
74 | RLSSRVIRKNFDYQTFCHED | 0.414 ± 0.34
75 | SVTHKTKCRLQFGVEMGQN | 1.13 ± 0.8

Row | Substance | amyloid nucleation score
76 | INMRKLPSRVSSFKVKCGHR | -0.42 ± 1.7
77 | DFGFLF | 0.851 ± 0.37
78 | RLIYRCLKSGCVFPWLSRMS | -0.571 ± 1.1
79 | GIGLGFQ | -0.563 ± 0.53
80 | SQPMSS | 0.591 ± 0.31
81 | VCRTPSLRHHTFDVYFWSDV | -0.105 ± 1.4
82 | ALDIFTNTKSVIGYVGIGKC | 0.194 ± 0.52
83 | CLNSDALDHW | 1.17 ± 0.42
84 | AFRVS | -0.513 ± 0.63
85 | VGCADEMVPMEFMCWLGIIF | -0.909 ± 2.7
86 | NWVRFIHFYYNGTRLWAEFV | -0.915 ± 0.74
87 | FHVSDV | -0.125 ± 0.98
88 | NQANQSQPCTDSFILRNGVV | inactive
89 | NKTVVLDHPHVCFPGSRSHL | inactive
90 | LRKTFF | 0.38 ± 0.33
91 | LRIFSA | 1.22 ± 0.8
92 | RSELI | -0.211 ± 0.36
93 | PKKLRMYLPMHLSTPKRRLV | 0.565 ± 0.58
94 | TAAGSNQSEAFFFTNIISE | 0.078 ± 0.84
95 | DTLIAWTGLVMFTSVERGCS | -0.299 ± 0.37
96 | SLAYCSFHMLKIPLRSGPTW | 0.01 ± 1.2
97 | LKVTCFRTYANFGRYDILVF | 0.096 ± 0.53
98 | SCTCVQHPDGSYAFEIGAAN | 0.009 ± 0.96
99 | LGQLFHGGCD | 0.3 ± 0.43
100 | RRWALRYINSATLFFLKVIG | -0.661 ± 0.93

Row | Substance | amyloid nucleation score
101 | SLRSHML | 0.938 ± 0.98
102 | LQWNRERGLTLLSWLRYKSI | -0.505 ± 1.5
103 | WWLFHVFLLKRQSITNAGVR | inactive
104 | AGHLGWARFVYTLLSEDTVH | 0.031 ± 0.79
105 | GTHTEYSQKTVLVDIFTELM | inactive
106 | TVFGVL | 0.705 ± 0.77
107 | SACFVARSVVCDWGCAGYMF | 2.67 ± 0.28
108 | KLLPSKLCNASRFSFFYKES | -0.82 ± 0.81
109 | WDHQNMNLYYIKYGMVMNQS | 3.17 ± 0.067
110 | FWSYLSGLVGMYGQIVIKKA | 0.059 ± 0.79
111 | LIYFKGSS | 0.399 ± 0.79
112 | KITWDLF | 0.759 ± 0.52
113 | SQHDRKYHYTIGYAQELDGL | -0.235 ± 0.43
114 | VFSNLELTFDRGCFPVRCLR | -0.482 ± 0.35
115 | WITYHEFWRLTKGCLSFTDL | 0.023 ± 0.55
116 | PVSDLVIFLQLRFRNTCMLP | 0.952 ± 0.92
117 | QCIPLLAGSYCAQML | 0.914 ± 0.14
118 | THGVSWQLVRDAILNGGPKR | -1.12 ± 1.3
119 | FLYRSYVNIGLGGANISNLV | 4.3 ± 0.12
120 | FGLADITWKLPPQGSTWRLT | -0.108 ± 0.95
121 | CRIIPLYRKFLKHLTCHYIQ | -0.092 ± 0.25
122 | IIGRLNLKMISGLI | 2.15 ± 0.58
123 | KVLGQGYERMDLFIVVFR | -0.357 ± 0.59
124 | VRLCIVHHG | 0.527 ± 0.49
125 | LFSRFCTTVCKSTFRFDTR | 1.65 ± 0.76

Row | Substance | amyloid nucleation score
126 | STSILGANFALVWSEVVTVS | -0.023 ± 0.66
127 | AGGAP | 0.501 ± 0.89
128 | PLSILRKMAGVVSGCTAPTS | 0.663 ± 0.7
129 | LCTDCLSGTVSDCRMFSHNR | -0.592 ± 0.75
130 | IKISYEIQAMAVLGM | inactive
131 | SSKMNILP | 0.51 ± 0.26
132 | YMVYILSVCDLRFLWTRSGG | -0.053 ± 0.49
133 | SVDIAINALS | 0.492 ± 0.41
134 | LRNRMGNDIISILITIPKIV | 0.217 ± 0.34
135 | HRTFA | 0.465 ± 0.35
136 | RRLSMIMLFNPLSIWCFAQS | 0.408 ± 0.5
137 | LNDRYYVIM | 0.233 ± 0.93
138 | WGFESFSAWATMCERSRWHR | 0.428 ± 0.55
139 | GTVSGYYVRVGNFAMYYQAY | 1.91 ± 0.17
140 | YDKFFGVSIDDR | 0.038 ± 0.59
141 | PLIITTMFGASVRESFHVVL | 1.21 ± 0.4
142 | VASFRMG | 1.37 ± 0.14
143 | RKFGPMG | 0.848 ± 1
144 | LWHAYAKSGYPFGSMVGVHA | 0.703 ± 0.4
145 | MYINGWYWTDGFIVNYQWMG | 0.626 ± 0.55
146 | TRKWEYTSKVRVQRGSVYLL | 0.13 ± 0.65
147 | LNPCHWGAFLY | 0.648 ± 0.67
148 | QWKGSFSSV | -0.873 ± 1.1
149 | YVWDFRKLLYPAGWMSESVR | -0.346 ± 1
150 | CTAWNVS | -0.657 ± 1.7

Row | Substance | amyloid nucleation score
151 | SDKEVVSLQEVHTQSEGSEG | 0.174 ± 0.27
152 | STILKWRSWLARFLIHMVVV | 0.659 ± 0.47
153 | HEGPCKRNCTGVLLRSARRH | -0.049 ± 0.26
154 | SNPRTFNDPSKPRV | 0.518 ± 0.35
155 | WCKILYAKQERWP | 0.677 ± 0.44
156 | IGVRRFFLWS | -0.753 ± 0.48
157 | CSSMQFVACLNSAYGSSTAM | 0.027 ± 0.76
158 | GGSGDTTSCMLFKRIVRR | inactive
159 | RQDVT | 0.281 ± 0.61
160 | SNKIGVCSKLMISFPCIEYN | -0.065 ± 1.1
161 | AGWYINYTGKRDDARLLY | 0.187 ± 0.86
162 | HTQDYEEFIFCLM | inactive
163 | SYARTFMDLHNGSRH | -0.013 ± 0.25
164 | YGFSNYRMIVQLYNLFSMYD | 3.04 ± 0.21
165 | LSYEDSSFNFLNSFYIKSWW | -0.161 ± 0.5
166 | LIARMWANFRRGVSITARF | 0.87 ± 0.87
167 | IKSGPPGRRQLFN | -0.741 ± 0.81
168 | IHWANPLTVSAFKVWVEDMV | 0.256 ± 0.29
169 | ICLIAWGQ | 1.66 ± 0.41
170 | TWQLNIYMEKFSGVEKSSTV | 7.841 ± 0.053
171 | MRLMVGYRRCFASLVKNVCT | -0.963 ± 1.8
172 | RPHECRSWAPVRALSGDAHL | 2.91 ± 0.13
173 | HKLDQLKASRLPSLVNWRVG | 1.12 ± 0.7
